# B1: PEX5 peptide 240-255 (Peroxisomal targeting signal 1 receptor), 16-mer library wild type / PEX14 Pex14 (PEX14 PEX14, residues 16-84) (parent complex)
# chain 1: AEQWAAEFIQQQGTSD
# chain 2: TPGSENVLPREPLIATAVKFLQNSRVRQSPLATRRAFLKKKGLTDEEIDMAFQQSGTAADEPSSLGPAT
# Variants of: B1
# Experiment: proteomic peptide phage display deep mutational scan (ProP-PD DMS): M13 P8 16-mer library selected against immobilised GST-tagged bait for four days (rounds), NGS of the eluted pools per day and pseudo-replica; bait immobilised on MaxiSorp plates (10 µg), library pre-cleared on GST, 2 h binding at 4 °C, five washes; one round per day, days 1-4; value from days 2 and 3
row,Variant,screen value
1,chain 1 AEQWAAEFIQQQGNSD [chain 1 T14N],"0.000434 average fractional NGS count over selection days 2 and 3 (reads of this peptide / all reads for the bait, averaged over …"
2,chain 1 AEQWAAEFIQQQGQSD [chain 1 T14Q],"0.000835 average fractional NGS count over selection days 2 and 3 (reads of this peptide / all reads for the bait, averaged over …"
3,chain 1 AEQWAAEFIQQQGESD [chain 1 T14E],"0.000967 average fractional NGS count over selection days 2 and 3 (reads of this peptide / all reads for the bait, averaged over …"
4,chain 1 AEQWAAEFIQQQGHSD [chain 1 T14H],"0.00166 average fractional NGS count over selection days 2 and 3 (reads of this peptide / all reads for the bait, averaged over …"
5,chain 1 AEQWAAEFIQQQGWSD [chain 1 T14W],"0.000366 average fractional NGS count over selection days 2 and 3 (reads of this peptide / all reads for the bait, averaged over …"
6,chain 1 AEQWAAEFIQQQGASD [chain 1 T14A],"0.00163 average fractional NGS count over selection days 2 and 3 (reads of this peptide / all reads for the bait, averaged over …"
7,chain 1 HEQWAAEFIQQQGTSD [chain 1 A1H],"0.0701 average fractional NGS count over selection days 2 and 3 (reads of this peptide / all reads for the bait, averaged over …"
8,chain 1 PEQWAAEFIQQQGTSD [chain 1 A1P],"0.000938 average fractional NGS count over selection days 2 and 3 (reads of this peptide / all reads for the bait, averaged over …"
9,chain 1 WEQWAAEFIQQQGTSD [chain 1 A1W],"0.00504 average fractional NGS count over selection days 2 and 3 (reads of this peptide / all reads for the bait, averaged over …"
10,chain 1 REQWAAEFIQQQGTSD [chain 1 A1R],"0.000918 average fractional NGS count over selection days 2 and 3 (reads of this peptide / all reads for the bait, averaged over …"
11,chain 1 IEQWAAEFIQQQGTSD [chain 1 A1I],"0.000927 average fractional NGS count over selection days 2 and 3 (reads of this peptide / all reads for the bait, averaged over …"
12,chain 1 QEQWAAEFIQQQGTSD [chain 1 A1Q],"0.00549 average fractional NGS count over selection days 2 and 3 (reads of this peptide / all reads for the bait, averaged over …"
13,chain 1 AEQWAAEFIQQQGTRD [chain 1 S15R],"0.00217 average fractional NGS count over selection days 2 and 3 (reads of this peptide / all reads for the bait, averaged over …"
14,chain 1 AEQWAAEFIQQQGTLD [chain 1 S15L],"0.00083 average fractional NGS count over selection days 2 and 3 (reads of this peptide / all reads for the bait, averaged over …"
15,chain 1 AEQWAAEFIQQQGTTD [chain 1 S15T],"0.00362 average fractional NGS count over selection days 2 and 3 (reads of this peptide / all reads for the bait, averaged over …"
16,chain 1 AEQWAAEFIQQQGTGD [chain 1 S15G],"0.00221 average fractional NGS count over selection days 2 and 3 (reads of this peptide / all reads for the bait, averaged over …"
17,chain 1 AEQWAAEFIQQQGTVD [chain 1 S15V],"0.000997 average fractional NGS count over selection days 2 and 3 (reads of this peptide / all reads for the bait, averaged over …"
18,chain 1 AEQWAAEFIQQQGTYD [chain 1 S15Y],"0.000382 average fractional NGS count over selection days 2 and 3 (reads of this peptide / all reads for the bait, averaged over …"
19,chain 1 AEQWAAEFIQQQGTQD [chain 1 S15Q],"0.0029 average fractional NGS count over selection days 2 and 3 (reads of this peptide / all reads for the bait, averaged over …"

row,Variant,screen value
1,chain 1 AEQWAAEFHQQQGTSD [chain 1 I9H],"0.0279 average fractional NGS count over selection days 2 and 3 (reads of this peptide / all reads for the bait, averaged over …"
2,chain 1 AEQWAAEFMQQQGTSD [chain 1 I9M],"0.00443 average fractional NGS count over selection days 2 and 3 (reads of this peptide / all reads for the bait, averaged over …"
3,chain 1 AEQWAAEFKQQQGTSD [chain 1 I9K],"0.000873 average fractional NGS count over selection days 2 and 3 (reads of this peptide / all reads for the bait, averaged over …"
4,chain 1 AEQWAAEFRQQQGTSD [chain 1 I9R],"0.00363 average fractional NGS count over selection days 2 and 3 (reads of this peptide / all reads for the bait, averaged over …"
5,chain 1 AEQWAAEFTQQQGTSD [chain 1 I9T],"0.000404 average fractional NGS count over selection days 2 and 3 (reads of this peptide / all reads for the bait, averaged over …"
6,chain 1 AEQWAAEFYQQQGTSD [chain 1 I9Y],"0.0023 average fractional NGS count over selection days 2 and 3 (reads of this peptide / all reads for the bait, averaged over …"
7,chain 1 AEQWAAEFGQQQGTSD [chain 1 I9G],"0.000546 average fractional NGS count over selection days 2 and 3 (reads of this peptide / all reads for the bait, averaged over …"
8,chain 1 AEQWAAEFLQQQGTSD [chain 1 I9L],"0.000942 average fractional NGS count over selection days 2 and 3 (reads of this peptide / all reads for the bait, averaged over …"
9,chain 1 AEQWAAEFDQQQGTSD [chain 1 I9D],"0.000867 average fractional NGS count over selection days 2 and 3 (reads of this peptide / all reads for the bait, averaged over …"
10,chain 1 AEQWAAEFWQQQGTSD [chain 1 I9W],"0.00339 average fractional NGS count over selection days 2 and 3 (reads of this peptide / all reads for the bait, averaged over …"
11,chain 1 AEQWAAEFIQQQYTSD [chain 1 G13Y],"0.000307 average fractional NGS count over selection days 2 and 3 (reads of this peptide / all reads for the bait, averaged over …"
12,chain 1 AEQWAAEFIQQQKTSD [chain 1 G13K],"0.000992 average fractional NGS count over selection days 2 and 3 (reads of this peptide / all reads for the bait, averaged over …"
13,chain 1 AEQWAAEFIQQQATSD [chain 1 G13A],"0.00173 average fractional NGS count over selection days 2 and 3 (reads of this peptide / all reads for the bait, averaged over …"
14,chain 1 AEQWAAEFIQQQSTSD [chain 1 G13S],"0.00151 average fractional NGS count over selection days 2 and 3 (reads of this peptide / all reads for the bait, averaged over …"
15,chain 1 AEQWAAEFIQQQTTSD [chain 1 G13T],"0.000744 average fractional NGS count over selection days 2 and 3 (reads of this peptide / all reads for the bait, averaged over …"
16,chain 1 AEQWAAEFIQQQQTSD [chain 1 G13Q],"0.000525 average fractional NGS count over selection days 2 and 3 (reads of this peptide / all reads for the bait, averaged over …"
17,chain 1 AEQWAAEFIQQQPTSD [chain 1 G13P],"0.00036 average fractional NGS count over selection days 2 and 3 (reads of this peptide / all reads for the bait, averaged over …"
18,chain 1 AEQWAAEFIQQQETSD [chain 1 G13E],"0.000748 average fractional NGS count over selection days 2 and 3 (reads of this peptide / all reads for the bait, averaged over …"
19,chain 1 AEQWAAEFIQQQMTSD [chain 1 G13M],"0.000519 average fractional NGS count over selection days 2 and 3 (reads of this peptide / all reads for the bait, averaged over …"

row,Variant,screen value
1,chain 1 AHQWAAEFIQQQGTSD [chain 1 E2H],"0.00822 average fractional NGS count over selection days 2 and 3 (reads of this peptide / all reads for the bait, averaged over …"
2,chain 1 ASQWAAEFIQQQGTSD [chain 1 E2S],"0.000804 average fractional NGS count over selection days 2 and 3 (reads of this peptide / all reads for the bait, averaged over …"
3,chain 1 AMQWAAEFIQQQGTSD [chain 1 E2M],"0.00435 average fractional NGS count over selection days 2 and 3 (reads of this peptide / all reads for the bait, averaged over …"
4,chain 1 APQWAAEFIQQQGTSD [chain 1 E2P],"0.000798 average fractional NGS count over selection days 2 and 3 (reads of this peptide / all reads for the bait, averaged over …"
5,chain 1 AGQWAAEFIQQQGTSD [chain 1 E2G],"0.000866 average fractional NGS count over selection days 2 and 3 (reads of this peptide / all reads for the bait, averaged over …"
6,chain 1 AWQWAAEFIQQQGTSD [chain 1 E2W],"0.000954 average fractional NGS count over selection days 2 and 3 (reads of this peptide / all reads for the bait, averaged over …"
7,chain 1 AYQWAAEFIQQQGTSD [chain 1 E2Y],"0.00378 average fractional NGS count over selection days 2 and 3 (reads of this peptide / all reads for the bait, averaged over …"
8,chain 1 ATQWAAEFIQQQGTSD [chain 1 E2T],"0.00227 average fractional NGS count over selection days 2 and 3 (reads of this peptide / all reads for the bait, averaged over …"
9,chain 1 ADQWAAEFIQQQGTSD [chain 1 E2D],"0.00048 average fractional NGS count over selection days 2 and 3 (reads of this peptide / all reads for the bait, averaged over …"
10,chain 1 AEQWASEFIQQQGTSD [chain 1 A6S],"0.00105 average fractional NGS count over selection days 2 and 3 (reads of this peptide / all reads for the bait, averaged over …"
11,chain 1 AEQWAVEFIQQQGTSD [chain 1 A6V],"0.00173 average fractional NGS count over selection days 2 and 3 (reads of this peptide / all reads for the bait, averaged over …"
12,chain 1 AEQWANEFIQQQGTSD [chain 1 A6N],"0.00234 average fractional NGS count over selection days 2 and 3 (reads of this peptide / all reads for the bait, averaged over …"
13,chain 1 AEQWAIEFIQQQGTSD [chain 1 A6I],"0.00623 average fractional NGS count over selection days 2 and 3 (reads of this peptide / all reads for the bait, averaged over …"
14,chain 1 AEQWAYEFIQQQGTSD [chain 1 A6Y],"0.00438 average fractional NGS count over selection days 2 and 3 (reads of this peptide / all reads for the bait, averaged over …"
15,chain 1 AEQWAREFIQQQGTSD [chain 1 A6R],"0.00273 average fractional NGS count over selection days 2 and 3 (reads of this peptide / all reads for the bait, averaged over …"
16,chain 1 AEQWADEFIQQQGTSD [chain 1 A6D],"0.0111 average fractional NGS count over selection days 2 and 3 (reads of this peptide / all reads for the bait, averaged over …"
17,chain 1 AEQWAFEFIQQQGTSD [chain 1 A6F],"0.00131 average fractional NGS count over selection days 2 and 3 (reads of this peptide / all reads for the bait, averaged over …"
18,chain 1 AEQWAGEFIQQQGTSD [chain 1 A6G],"0.00471 average fractional NGS count over selection days 2 and 3 (reads of this peptide / all reads for the bait, averaged over …"

# Reference: PMC12102759 (2025)
